{"source": "patent US7410774B1", "about": "“Compounds modulating sister chromatid separation and method for identifying same” (Boehringer Ingelheim International GmbH, priority 1999, dated 2008)", "key": {"[1]": {"molecular_target": "T1, Esp1 (Saccharomyces cerevisiae, UniProt Q03018)", "T1 construct": "made in house; host or cells: S. cerevisiae W303 derivative overexpressing Esp1p from the GAL1-10 promoter; soluble cell extract, not purified", "test": "In vitro assay for yeast Esp1p activity (Esp1-dependent Scc1p cleavage)", "type": "biochemical", "details": "yeast chromatin incubated with extract over-producing Esp1; Western blot", "method": "A crude Triton X-100 insoluble chromatin preparation was obtained from yeast cells as described (Liang and Stillman, 1997). The pelleted chromatin was resuspended in yeast cell extracts that had been prepared similar to the supernatant fraction of the chromatin preparation. One tenth volume of an ATP regenerating system was added (50 mM HEPES/KOH pH-7.5, 100 mM KCl, 10 mM MgCl2, 10 mM ATP, 600 mM creatin phosphate, 1.5 mg/ml phophocreatin kinase, 1 mM DTT, 10% glycerol). Reactions were incubated for 10 min at 25° C. with shaking and stopped on ice. The chromatin fraction was separated again from the supernatant by centrifugation, and resuspended in buffer EBX (Liang and Stillman, 1997). Equivalent aliquots of supernatant and chromatin pellet were analysed by SDS-PAGE and Western blotting. Scc1-HA was detected with the anti-HA monoclonal antibody 16B12 (Boehringer Mannheim). […]\nChromatin was prepared from a strain containing Scc1p tagged with HA epitopes that was arrested in metaphase with nocodazol. The proteins in the chromatin preparation were resolved by SDS-PAGE and Scc1-HA was detected by western blotting (FIG. 2, lane 1). […] Aliquots of the supernatant fraction and the chromatin fraction of each reaction were analysed."}, "[2]": {"molecular_target": "T2, Scc1p tagged with multiple HA epitopes, chromatin-bound (chromatin of nocodazole-arrested yeast), Q12158", "T2 chain": "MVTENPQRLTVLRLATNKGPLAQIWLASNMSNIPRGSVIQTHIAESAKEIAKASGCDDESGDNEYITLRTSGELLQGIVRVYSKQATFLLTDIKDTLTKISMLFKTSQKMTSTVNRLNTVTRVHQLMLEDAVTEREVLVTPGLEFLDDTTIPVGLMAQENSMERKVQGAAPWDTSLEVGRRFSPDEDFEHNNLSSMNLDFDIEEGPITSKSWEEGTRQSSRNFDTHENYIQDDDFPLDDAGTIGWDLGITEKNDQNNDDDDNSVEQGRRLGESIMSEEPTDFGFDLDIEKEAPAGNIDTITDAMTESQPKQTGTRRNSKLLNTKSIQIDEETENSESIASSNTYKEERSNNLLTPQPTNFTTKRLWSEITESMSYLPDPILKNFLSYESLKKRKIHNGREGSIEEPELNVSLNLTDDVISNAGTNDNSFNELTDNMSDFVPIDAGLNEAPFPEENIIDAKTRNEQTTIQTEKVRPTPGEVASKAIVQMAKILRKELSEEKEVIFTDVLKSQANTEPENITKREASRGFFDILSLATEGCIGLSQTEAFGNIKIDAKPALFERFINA"}}, "data": [{"molecule": "CCN1C(=O)C=CC1=O", "note": "[N-ethyl maleimide]", "values": [{"measurement": "Esp1-dependent in vitro cleavage of Scc1p", "setting": "[1]", "value": "inhibited"}]}, {"molecule": "Esp1 mutant C1531A tagged with a FLAG epitope, overexpressed in yeast (protein) MMVKQEEPLNEISPNTPMTSKSYLLNDTLSKVHHSGQTRPLTSVLSGDASSNSIGILAMHNNIIRDFTKIASNNIDLAIEDITTVDHSLNSIYSLLKSHHMWGHINSTVKQHLMIIVKLINNNALGLASSEIIFLFNETNLFQAHSLKNILLADFSTWNDYYLSNLKILALQIILKRKLVDEYLPHILELFSHDKRYLLKDPNLKAHALTKIVLSFFSVTTSCKVLFGLKFLQYIKQFKLPFKKFISNITVECFSKNLLHKNYLEMGPNKIYLNSFYLSYSMLYDGLDKIMLLDILSYEETTEVQRAIKSKKEFNEYCNMSENRLLWSCISVDDLNVILENATNFLQNKGKHISATLKCLVCLWSTIRLEGLPKNKDILRQFDCTVIYINSNIKSINDESAAALLSELLGVLSEICIDYKEPKRLSNIISVLFNASVLFKSHSFLLKTANLEISNVLISNDSKTSHRTILKFEKFISSAQSAQKKIEIFSCLFNVYCMLRNDTLSFVFDFCQNAFIHCFTRLKITKFIEFSNSSEIMLSVLYGNSSIENIPSENWSQLSRMIFCSLRGIFDLDPLELNNTFDKLHLLNKYELLIRIVYLLNLDMSKHLTTNLSKITKLYINKWLQKSDEKAERISSFEMDFVKMLLCYLNFNNFDKLSIELSLCIKSKEKYYSSIVPYADNYLLEAYLSLYMIDDALMMKNQLQKTMNLSTAKIEQALLHASSLINVHLWDSDLTAFQIYFGKTLPAMKPELFDINNDHNLPMSLYIKVILLNIKIFNESAKLNIKAGNVISAVIDCRKAQNLALSLLKKKNKLSQGSRLALLKSLSFSFFQLIKIHIRIGSARDCEFYSKELSRIISDLEEPIIVYRCLHFLHRYYMITEQTCLQNITLGKANKAFDYLDAEADITSLTMFLYDNKEFVKLEQSLVLYFGDQLEKTFLPNLWKLHLGKDIDDSICLSEYMPKNVINRVHNMWQKVMSQLEEDPFFKGMFESTLGIPSSLPVIPSTMPNNILKTPSKHSTGLKLCDSPRSSSMTPRGKNIRQKFDRIAAISKLKQMKELLESLKLDTLDNHELSKISSLSSLTLTILSNITSIHNAESSLITNFSLTDLPRHMPLLFDKVLNNIDNKNYREFRVSSLIAPNNISTITESIRVSAAQKDLMESNLNINVITIDFCPITGNLLLSKLEPRRKRRTHLRLPLIRSNSRDLDEVHLSFPEATKKLLSIINESNQTTSVEVTNKIKTREERKSWWTTRYDLDKRMQQLLNNIENSWFNGVQGFFSPEVVDNSLFEKFKDKFYEILHQNLPSRKLYGNPAMFIKVEDWVIELFLKLNPQEIDFLSKMEDLIYFVLDILLFHGEENAYDEIDFSMLHVQLEEQIKKYRATMTTNSIFHTFLVVSSSCHLFPWECLSFLKDLSITRVPSYVCLNKLLSRFHYQLPLQVTIEDNISMILNPNGDLSRTESKFKGMFQKIIDAKPSSQLVMNEKPEEETLLKMLQNSNLFVYIGHGGGEQYVRSKEIKKCTKIAPSFLLGASSAAMKYYGKLEPTGTIYTYLLGGCPMVLGNLWDVTDKDIDKFSEELFEKMGFRCNTDDLNGNSLSVSYAVSKSRGVCHLRYLNGAAPVIYGLPIKFVS", "values": [{"measurement": "Scc1 cleavage activity in yeast extracts", "setting": "[2]", "value": "Both mutations completely abolished the proteolytic activity in yeast extracts after overproduction of the proteins"}]}, {"molecule": "Wildtype Esp1 tagged with a FLAG epitope, overexpressed in yeast (protein) MMVKQEEPLNEISPNTPMTSKSYLLNDTLSKVHHSGQTRPLTSVLSGDASSNSIGILAMHNNIIRDFTKIASNNIDLAIEDITTVDHSLNSIYSLLKSHHMWGHINSTVKQHLMIIVKLINNNALGLASSEIIFLFNETNLFQAHSLKNILLADFSTWNDYYLSNLKILALQIILKRKLVDEYLPHILELFSHDKRYLLKDPNLKAHALTKIVLSFFSVTTSCKVLFGLKFLQYIKQFKLPFKKFISNITVECFSKNLLHKNYLEMGPNKIYLNSFYLSYSMLYDGLDKIMLLDILSYEETTEVQRAIKSKKEFNEYCNMSENRLLWSCISVDDLNVILENATNFLQNKGKHISATLKCLVCLWSTIRLEGLPKNKDILRQFDCTVIYINSNIKSINDESAAALLSELLGVLSEICIDYKEPKRLSNIISVLFNASVLFKSHSFLLKTANLEISNVLISNDSKTSHRTILKFEKFISSAQSAQKKIEIFSCLFNVYCMLRNDTLSFVFDFCQNAFIHCFTRLKITKFIEFSNSSEIMLSVLYGNSSIENIPSENWSQLSRMIFCSLRGIFDLDPLELNNTFDKLHLLNKYELLIRIVYLLNLDMSKHLTTNLSKITKLYINKWLQKSDEKAERISSFEMDFVKMLLCYLNFNNFDKLSIELSLCIKSKEKYYSSIVPYADNYLLEAYLSLYMIDDALMMKNQLQKTMNLSTAKIEQALLHASSLINVHLWDSDLTAFQIYFGKTLPAMKPELFDINNDHNLPMSLYIKVILLNIKIFNESAKLNIKAGNVISAVIDCRKAQNLALSLLKKKNKLSQGSRLALLKSLSFSFFQLIKIHIRIGSARDCEFYSKELSRIISDLEEPIIVYRCLHFLHRYYMITEQTCLQNITLGKANKAFDYLDAEADITSLTMFLYDNKEFVKLEQSLVLYFGDQLEKTFLPNLWKLHLGKDIDDSICLSEYMPKNVINRVHNMWQKVMSQLEEDPFFKGMFESTLGIPSSLPVIPSTMPNNILKTPSKHSTGLKLCDSPRSSSMTPRGKNIRQKFDRIAAISKLKQMKELLESLKLDTLDNHELSKISSLSSLTLTILSNITSIHNAESSLITNFSLTDLPRHMPLLFDKVLNNIDNKNYREFRVSSLIAPNNISTITESIRVSAAQKDLMESNLNINVITIDFCPITGNLLLSKLEPRRKRRTHLRLPLIRSNSRDLDEVHLSFPEATKKLLSIINESNQTTSVEVTNKIKTREERKSWWTTRYDLDKRMQQLLNNIENSWFNGVQGFFSPEVVDNSLFEKFKDKFYEILHQNLPSRKLYGNPAMFIKVEDWVIELFLKLNPQEIDFLSKMEDLIYFVLDILLFHGEENAYDEIDFSMLHVQLEEQIKKYRATMTTNSIFHTFLVVSSSCHLFPWECLSFLKDLSITRVPSYVCLNKLLSRFHYQLPLQVTIEDNISMILNPNGDLSRTESKFKGMFQKIIDAKPSSQLVMNEKPEEETLLKMLQNSNLFVYIGHGGGEQYVRSKEIKKCTKIAPSFLLGCSSAAMKYYGKLEPTGTIYTYLLGGCPMVLGNLWDVTDKDIDKFSEELFEKMGFRCNTDDLNGNSLSVSYAVSKSRGVCHLRYLNGAAPVIYGLPIKFVS", "values": [{"measurement": "Scc1 cleavage activity in yeast extracts", "setting": "[2]", "value": "Wild type Esp1 overexpressed to a similar level caused complete cleavage of the Scc1 substrate"}]}, {"molecule": "Esp1 mutant H1505A tagged with a FLAG epitope, overexpressed in yeast (protein) MMVKQEEPLNEISPNTPMTSKSYLLNDTLSKVHHSGQTRPLTSVLSGDASSNSIGILAMHNNIIRDFTKIASNNIDLAIEDITTVDHSLNSIYSLLKSHHMWGHINSTVKQHLMIIVKLINNNALGLASSEIIFLFNETNLFQAHSLKNILLADFSTWNDYYLSNLKILALQIILKRKLVDEYLPHILELFSHDKRYLLKDPNLKAHALTKIVLSFFSVTTSCKVLFGLKFLQYIKQFKLPFKKFISNITVECFSKNLLHKNYLEMGPNKIYLNSFYLSYSMLYDGLDKIMLLDILSYEETTEVQRAIKSKKEFNEYCNMSENRLLWSCISVDDLNVILENATNFLQNKGKHISATLKCLVCLWSTIRLEGLPKNKDILRQFDCTVIYINSNIKSINDESAAALLSELLGVLSEICIDYKEPKRLSNIISVLFNASVLFKSHSFLLKTANLEISNVLISNDSKTSHRTILKFEKFISSAQSAQKKIEIFSCLFNVYCMLRNDTLSFVFDFCQNAFIHCFTRLKITKFIEFSNSSEIMLSVLYGNSSIENIPSENWSQLSRMIFCSLRGIFDLDPLELNNTFDKLHLLNKYELLIRIVYLLNLDMSKHLTTNLSKITKLYINKWLQKSDEKAERISSFEMDFVKMLLCYLNFNNFDKLSIELSLCIKSKEKYYSSIVPYADNYLLEAYLSLYMIDDALMMKNQLQKTMNLSTAKIEQALLHASSLINVHLWDSDLTAFQIYFGKTLPAMKPELFDINNDHNLPMSLYIKVILLNIKIFNESAKLNIKAGNVISAVIDCRKAQNLALSLLKKKNKLSQGSRLALLKSLSFSFFQLIKIHIRIGSARDCEFYSKELSRIISDLEEPIIVYRCLHFLHRYYMITEQTCLQNITLGKANKAFDYLDAEADITSLTMFLYDNKEFVKLEQSLVLYFGDQLEKTFLPNLWKLHLGKDIDDSICLSEYMPKNVINRVHNMWQKVMSQLEEDPFFKGMFESTLGIPSSLPVIPSTMPNNILKTPSKHSTGLKLCDSPRSSSMTPRGKNIRQKFDRIAAISKLKQMKELLESLKLDTLDNHELSKISSLSSLTLTILSNITSIHNAESSLITNFSLTDLPRHMPLLFDKVLNNIDNKNYREFRVSSLIAPNNISTITESIRVSAAQKDLMESNLNINVITIDFCPITGNLLLSKLEPRRKRRTHLRLPLIRSNSRDLDEVHLSFPEATKKLLSIINESNQTTSVEVTNKIKTREERKSWWTTRYDLDKRMQQLLNNIENSWFNGVQGFFSPEVVDNSLFEKFKDKFYEILHQNLPSRKLYGNPAMFIKVEDWVIELFLKLNPQEIDFLSKMEDLIYFVLDILLFHGEENAYDEIDFSMLHVQLEEQIKKYRATMTTNSIFHTFLVVSSSCHLFPWECLSFLKDLSITRVPSYVCLNKLLSRFHYQLPLQVTIEDNISMILNPNGDLSRTESKFKGMFQKIIDAKPSSQLVMNEKPEEETLLKMLQNSNLFVYIGAGGGEQYVRSKEIKKCTKIAPSFLLGCSSAAMKYYGKLEPTGTIYTYLLGGCPMVLGNLWDVTDKDIDKFSEELFEKMGFRCNTDDLNGNSLSVSYAVSKSRGVCHLRYLNGAAPVIYGLPIKFVS", "values": [{"measurement": "Scc1 cleavage activity in yeast extracts", "setting": "[2]", "value": "Both mutations completely abolished the proteolytic activity in yeast extracts after overproduction of the proteins"}]}]}
